Source: PMC9927289, “Control of Cell Size by c-di-GMP Requires a Two-Component Signaling System in the Cyanobacterium Anabaena sp. Strain PCC 7120” (Microbiology Spectrum, 2023)
Positions count from the first letter of the chain named. Names may count otherwise.

B1: CdgS (All2874) (Nostoc sp. PCC 7120 = FACHB-418) (protein)
chain: MKNTVPESQCLILIVDDEPFIRAQLRLSLQCEGYRTAEAEDGRQALAIFQELQPDIVLLDAIMPDLDGFECCTRLQLLEDGKYTPVLMITGLEDQESVDRAFEVGAIDYVTKPIHWPVLRQRVKRLIQQFHLQQKLEAANRELQRLVTIDELTQVANRRRFEEYCAQEWQRMARDQLPLSLILCDVDFFKAYNDTYGHRAGDRCLQLVAKAIESCVNRPADVVARYGGEEFAVILPRTYPDGAIHLANAICTAVRELQITHLTSQANTCVTISAGVATEIPVPNSDFQEIINAADRALYQAKMTGRDGCQQYIKQSSSPVYFLNAHHRLA
notes: REC-GGDEF response regulator; recombinant from E. coli BL21(DE3), pHTwinStrep vector (two tandem C-terminal Strep-tags)
B2: CdgS (All2874) (Nostoc sp. PCC 7120 = FACHB-418; D60A) (protein)
chain: B1 chain with D60A
notes: as for B1

Experiments:
[1] = substrate: Nc1nc2c(ncn2[C@@H]2O[C@H](COP(=O)(O)OP(=O)(O)OP(=O)(O)O)[C@@H](O)[C@H]2O)c(=O)[nH]1; assay: diguanylate cyclase assay, Michaelis-Menten and Lineweaver-Burk; type: biochemical, Nostoc sp. PCC 7120 = FACHB-418; settings: c-di-GMP synthesis; GTP varied
From the text: diguanylate cyclase assay, Michaelis-Menten and Lineweaver-Burk on CdgS (All2874) | kinetic curves for c-di-GMP synthesis of CdgS and CdgS^D60A followed Michaelis–Menten kinetics

[2] = substrate: Nc1nc2c(ncn2[C@@H]2O[C@H](COP(=O)(O)OP(=O)(O)OP(=O)(O)O)[C@@H](O)[C@H]2O)c(=O)[nH]1; assay: as above; type: biochemical, Nostoc sp. PCC 7120 = FACHB-418; settings: c-di-GMP synthesis; GTP varied; remark: listed apart in the source
From the text: diguanylate cyclase assay, Michaelis-Menten and Lineweaver-Burk on CdgS (All2874) | CdgS^D60A could still synthesize c-di-GMP using GTP as the substrate

Protein | Km [1] [µM] | kcat [1] [s⁻¹] | Km [2] [µM] | kcat [2] [s⁻¹]
B1 | 5.84 | 73.68 | – | –
B2 | – | – | 6.33 | 60.53
